Kd and IC50 data for 6 sequences are collected here from the Immune Epitope Database (IEDB).

One experiment addresses HLA-A*29:02. Kind of experiment: IEDB peptide-MHC binding, purified MHC/direct/fluorescence; filed as Kd, often an IC50 or EC50 that approximates it; ≥ and ≤ were set here for values at or beyond the usual limits of such assays.
The target of a further experiment is HLA-A*02:03. Described as above.
For experiment [1], the target named is HLA-A*03:01. The description is as above.
The next experiment concerns the target HLA-A*02:11. Described as above.
Experiment [2] deals with HLA-A*68:02. Described as above.
For another experiment, the target named is HLA-A*24:03. Described as above.
The target in a further experiment is HLA-A*02:16. The description is as above.
The target of the next experiment is HLA-A*23:01. The experiment is described as above.
The target of a further experiment is HLA-A*02:12. Described as above.
The target in another experiment is HLA-A*02:19. Described as above.
In experiment [3] the target is HLA-A*03:01. As to the kind of experiment: IEDB peptide-MHC binding, purified MHC/competitive/fluorescence; ≥ and ≤ were set here for values at or beyond the usual limits of such assays. As to conditions: source organism: Zaire ebolavirus.
The target of experiment [4] is HLA-A*11:01. Described as above. As to conditions: source organism: Zaire ebolavirus.
Experiment [5] deals with HLA-A*02:01. The description is as above. As to conditions: source organism: Zaire ebolavirus.
The next experiment concerns the target HLA-A*69:01. As to the kind of experiment: IEDB peptide-MHC binding, purified MHC/competitive/fluorescence; filed as Kd, often an IC50 or EC50 that approximates it; ≥ and ≤ were set here for values at or beyond the usual limits of such assays.
The target of another experiment is HLA-B*18:01. The description is as above.
A further experiment addresses HLA-B*46:01. Described as above.
Experiment [6] concerns the target HLA-A*26:01. The experiment is described as above.
For another experiment, the target named is HLA-B*27:03. The experiment is described as above. As to conditions: source organism: Zaire ebolavirus.
A further experiment deals with HLA-B*51:01. Described as above.
Another experiment deals with HLA-B*15:17. Described as above.
The target of another experiment is HLA-B*39:01. Described as above.
Experiment [7] deals with HLA-B*15:01. Described as above.
Another experiment concerns the target HLA-B*57:01. The description is as above.
Experiment [8] has as its target HLA-A*02:01. The experiment is described as above.
The next experiment has as its target HLA-B*58:01. As to the kind of experiment: IEDB peptide-MHC binding, purified MHC/direct/fluorescence; filed as Kd, often an IC50 or EC50 that approximates it; ≥ and ≤ were set here for values at or beyond the usual limits of such assays. Particulars: source organism: Influenza A virus (A/tiger/Thailand/CU-T4/04(H5N1)).
For a further experiment, the target named is HLA-B*07:02. The experiment is described as above. As to conditions: source organism: Influenza A virus (A/tiger/Thailand/CU-T4/04(H5N1)).
In experiment [9] the target is HLA-A*26:01. The description is as above. As to conditions: source organism: Influenza A virus(A/swine/Shandong/fZC/2003(H9N2)).
The next experiment deals with HLA-A*31:01. The experiment is described as above. Particulars: source organism: Influenza A virus (A/tiger/Thailand/CU-T4/04(H5N1)).
The target in the next experiment is HLA-A*01:01. The experiment is described as above. As to conditions: source organism: Influenza A virus (A/tiger/Thailand/CU-T4/04(H5N1)).
In experiment [10] the target is HLA-B*15:01. Described as above. Particulars: source organism: Influenza A virus (A/Puerto Rico/8/34/Mount Sinai(H1N1)).
In experiment [11] the target is HLA-A*11:01. The description is as above. As to conditions: source organism: Influenza A virus (A/tiger/Thailand/CU-T4/04(H5N1)).
The target of experiment [12] is HLA-A*02:01. The experiment is described as above. As to conditions: source organism: Influenza A virus (A/tiger/Thailand/CU-T4/04(H5N1)).
The next experiment has as its target HLA-B*27:05. Described as above.
A further experiment has as its target HLA-A*26:02. Kind of experiment: IEDB peptide-MHC binding, purified MHC/competitive/fluorescence; filed as Kd, often an IC50 or EC50 that approximates it; ≥ and ≤ were set here for values at or beyond the usual limits of such assays. Particulars: source organism: Influenza A virus (A/duck/Hong Kong/3096/99(H6N2)).
Experiment [13] deals with HLA-A*68:02. The description is as above. Particulars: source organism: Influenza A virus (A/duck/Hong Kong/3096/99(H6N2)).
The next experiment deals with HLA-B*08:01. Described as above. As to conditions: source organism: Influenza A virus (A/duck/Hong Kong/3096/99(H6N2)).
The target in experiment [14] is HLA-B*35:01. The description is as above. Particulars: source organism: Influenza A virus (A/duck/Hong Kong/3096/99(H6N2)).
The next experiment concerns the target HLA-A*02:06. The experiment is described as above. Particulars: source organism: Influenza A virus (A/duck/Hong Kong/3096/99(H6N2)).
The target of experiment [15] is HLA-B*35:01. As to the kind of experiment: IEDB peptide-MHC binding, purified MHC/direct/fluorescence; filed as Kd, often an IC50 or EC50 that approximates it; ≥ and ≤ were set here for values at or beyond the usual limits of such assays. Particulars: source organism: Vibrio parahaemolyticus RIMD 2210633.
For another experiment, the target named is HLA-C*12:03. Described as above.
A further experiment has as its target HLA-C*03:03. The description is as above.
The mark [16] stands for this setting: source organism: Zaire ebolavirus.
[17] abbreviates: source organism: Influenza A virus(A/swine/Shandong/fZC/2003(H9N2)).
Where [18] appears, read: source organism: Influenza A virus (A/tiger/Thailand/CU-T4/04(H5N1)).
The mark [19] stands for this setting: source organism: Influenza A virus (A/duck/Hong Kong/3096/99(H6N2)).
[20] abbreviates: source organism: Vaccinia virus WR.
[21] abbreviates: source organism: Mycobacterium avium.

What is called Kd is the constant that tells how readily two partners part at equilibrium. Read a high Kd as lower affinity. For orientation: IC50 means the concentration needed to halve the response being measured. High values mean a need for much substance, low ones inhibition by little substance.

FLILPQAKK: the dissociation constant Kd with HLA-A*29:02 (setting [16]), with HLA-A*02:03 (setting [16]), in the experiment with HLA-A*03:01 [1] (setting [16]), with HLA-A*02:11 (setting [16]), with HLA-A*68:02 [2] (setting [16]) and in the experiment with HLA-A*24:03 (setting [16]) was at least 20 µM in each case. Also, the dissociation constant (Kd) with HLA-A*02:16 (setting [16]), in the experiment with HLA-A*23:01 (setting [16]), with HLA-A*02:12 (setting [16]), with HLA-A*02:19 (setting [16]), with HLA-A*69:01 (setting [16]) and in the experiment with HLA-B*18:01 (setting [16]) was at least 20 µM throughout. Moreover, the Kd with HLA-B*46:01 (setting [16]), with HLA-A*26:01 [6] (setting [16]), with HLA-B*27:03, with HLA-B*51:01 (setting [16]), with HLA-B*15:17 (setting [16]) and with HLA-B*39:01 (setting [16]) was at least 20 µM each time. In addition, the Kd with HLA-B*15:01 [7] (setting [16]), with HLA-B*57:01 (setting [16]) and with HLA-A*02:01 [8] (setting [16]) was at least 20 µM throughout. The values for the half-maximal inhibitory concentration (IC50) with HLA-A*03:01 [3], with HLA-A*11:01 [4] and with HLA-A*02:01 [5] were 4.4 µM, 1670 nM and 64.7 µM, respectively.
Take TMLYNKMEF: the Kd with HLA-B*58:01 is at least 20 µM; with HLA-A*02:03 (setting [17]), at least 20 µM; with HLA-A*03:01 [1] (setting [18]), at least 20 µM; in the experiment with HLA-B*07:02, at least 20 µM; with HLA-A*02:11 (setting [17]), 0.157 µM; with HLA-A*26:01 [9], at least 20 µM. Moreover, the Kd with HLA-A*31:01 was at least 20 µM; with HLA-A*01:01, at least 20 µM; in the experiment with HLA-A*24:03 (setting [18]), 0.0114 µM; in the experiment with HLA-B*15:01 [10], 118 nM; with HLA-A*23:01 (setting [18]), 0.047 µM; with HLA-A*11:01 [11] it was at least 20 µM. Besides, the Kd in the experiment with HLA-A*02:01 [12] was 604 nM; with HLA-A*02:12 (setting [17]) it was 3.47 µM; with HLA-B*27:05 (setting [18]), at least 20000 nM; in the experiment with HLA-A*02:19 (setting [17]) it was at least 5 µM; in the experiment with HLA-A*26:02, at least 20 µM; in the experiment with HLA-B*46:01 (setting [19]), at least 20 µM. The Kd was 4.44 µM with HLA-A*68:02 [13]; 0.311 µM in the experiment with HLA-B*15:17 (setting [19]); 3000 nM with HLA-B*08:01; at least 20 µM with HLA-B*39:01 (setting [19]); 1260 nM in the experiment with HLA-B*35:01 [14]; at least 20 µM in the experiment with HLA-B*57:01 (setting [19]). The same sequence yielded a Kd with HLA-A*02:06 of 312 nM.
Consider FAAWIQQTY, for which the values for the Kd with HLA-B*35:01 [15] and in the experiment with HLA-B*46:01 (source organism: Vibrio parahaemolyticus AN-5034) were 10 nM and 0.125 µM, respectively.
For the sequence FLRDNLYHV, the equilibrium dissociation constant (Kd) in the experiment with HLA-C*12:03 (setting [20]) is 29 nM; in the experiment with HLA-C*03:03 (setting [20]) it was at least 20000 nM; in the experiment with HLA-A*02:01 [8] (setting [20]), 0.0016 µM.
GRFQEALKK: the Kd in the experiment with HLA-A*29:02 (source organism: Choclo virus), with HLA-A*02:03 (source organism: Choclo virus), with HLA-A*03:01 [1] (source organism: Choclo virus), with HLA-A*02:11 (source organism: Choclo virus), in the experiment with HLA-A*68:02 [2] (source organism: Choclo virus) and in the experiment with HLA-A*24:03 (source organism: Choclo virus) was at least 20 µM throughout. Moreover, the equilibrium dissociation constant (Kd) was at least 20 µM in the experiment with HLA-A*02:16 (source organism: Choclo virus); at least 20 µM with HLA-A*23:01 (source organism: Choclo virus); at least 20 µM in the experiment with HLA-A*02:12 (source organism: Choclo virus); 71.7 nM with HLA-B*27:05 (source organism: Orthohantavirus andesense); at least 20 µM with HLA-A*02:19 (source organism: Choclo virus); at least 20 µM with HLA-A*69:01 (source organism: Choclo virus). The Kd with HLA-B*18:01 (source organism: Choclo virus), with HLA-B*46:01 (source organism: Choclo virus), with HLA-A*26:01 [6] (source organism: Choclo virus), with HLA-B*51:01 (source organism: Choclo virus), with HLA-B*15:17 (source organism: Choclo virus) and in the experiment with HLA-B*39:01 (source organism: Choclo virus) was at least 20 µM each time. Also, the Kd with HLA-B*15:01 [7] (source organism: Choclo virus), in the experiment with HLA-B*57:01 (source organism: Choclo virus) and with HLA-A*02:01 [8] (source organism: Choclo virus) was at least 20 µM in each case.
With LAANFVVAL, the values for the dissociation constant (Kd) with HLA-C*12:03 (setting [21]) and with HLA-C*03:03 (setting [21]) were 206 nM and 124 nM, respectively.
